The source of these data is patent publication US20140294834A1.

The target of this assay is his tagged cMET (UniProt P08581). Description: BLI (Fortebio Octet), antibody loaded on Protein A tips, his tagged cMET in solution, 1:1 fit.

Onartuzumab (antibody) displayed a Kd of 1.2 nM.
